In publication doi:10.1101/2025.05.09.653063 (bioRxiv, 2025):

Target: the molecule itself
Assay: focused ion beam electron microscopy

B1: His-tagged wild type PsmA (natural protein, Saccharolobus islandicus REY15A, UniProt C3MQ43 1-241, looked up)
chain: MAFGPAAMGYDRAITIFSPDGSLYQVDYAFEAVKKGWTAIGIKSKSGVVIASEKRKAQSLLDVDSIEKVFLIDDHVGCSFAGLASDGRVLIDYARNIALQHRLIYDEPVSIDYLTKSVADVKQMYTQHGGVRPFGVALVIAGIDKSVPKLYMTEPSGQYMPYQAVAIGQGYYTATEFLEKNYKEDLTIEDTILLALKALSATLKPNEKLTPNTVEIGYASTQTGLFLKMTSEDKNMYLQKL
stoichiometry N: 14

B2: His-tagged PsmA S200D (natural protein, Saccharolobus islandicus REY15A, UniProt C3MQ43 1-241, looked up)
chain: MAFGPAAMGYDRAITIFSPDGSLYQVDYAFEAVKKGWTAIGIKSKSGVVIASEKRKAQSLLDVDSIEKVFLIDDHVGCSFAGLASDGRVLIDYARNIALQHRLIYDEPVSIDYLTKSVADVKQMYTQHGGVRPFGVALVIAGIDKSVPKLYMTEPSGQYMPYQAVAIGQGYYTATEFLEKNYKEDLTIEDTILLALKALDATLKPNEKLTPNTVEIGYASTQTGLFLKMTSEDKNMYLQKL
stoichiometry N: 14

B3: His-tagged PsmA T213E (natural protein, Saccharolobus islandicus REY15A, UniProt C3MQ43 1-241, looked up)
chain: MAFGPAAMGYDRAITIFSPDGSLYQVDYAFEAVKKGWTAIGIKSKSGVVIASEKRKAQSLLDVDSIEKVFLIDDHVGCSFAGLASDGRVLIDYARNIALQHRLIYDEPVSIDYLTKSVADVKQMYTQHGGVRPFGVALVIAGIDKSVPKLYMTEPSGQYMPYQAVAIGQGYYTATEFLEKNYKEDLTIEDTILLALKALSATLKPNEKLTPNEVEIGYASTQTGLFLKMTSEDKNMYLQKL
stoichiometry N: 14
